Test results: publication PMC9784774 (2022)

Molecular target: T1, recombinant gH/gL/UL128/UL130/UL131A pentamer (wild type) (human cytomegalovirus | human …)
T1 chain 1: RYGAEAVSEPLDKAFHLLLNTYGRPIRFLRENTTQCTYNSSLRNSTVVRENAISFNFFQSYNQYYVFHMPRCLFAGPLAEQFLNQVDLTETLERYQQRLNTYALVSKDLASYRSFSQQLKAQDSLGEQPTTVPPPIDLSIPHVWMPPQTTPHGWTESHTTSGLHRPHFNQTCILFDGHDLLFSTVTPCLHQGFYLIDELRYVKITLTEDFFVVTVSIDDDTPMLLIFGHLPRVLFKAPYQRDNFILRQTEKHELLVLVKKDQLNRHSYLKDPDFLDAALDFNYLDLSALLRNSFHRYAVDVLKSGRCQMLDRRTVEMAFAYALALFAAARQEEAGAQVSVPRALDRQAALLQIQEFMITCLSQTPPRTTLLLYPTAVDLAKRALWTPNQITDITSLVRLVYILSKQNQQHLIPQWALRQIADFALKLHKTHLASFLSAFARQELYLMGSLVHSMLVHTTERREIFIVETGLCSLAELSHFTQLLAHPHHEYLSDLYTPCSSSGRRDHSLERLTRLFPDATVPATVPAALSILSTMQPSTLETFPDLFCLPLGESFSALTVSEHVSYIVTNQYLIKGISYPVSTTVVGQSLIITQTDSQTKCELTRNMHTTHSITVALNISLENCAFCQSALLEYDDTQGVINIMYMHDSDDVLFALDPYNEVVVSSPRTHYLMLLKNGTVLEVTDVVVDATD
T1 chain 2: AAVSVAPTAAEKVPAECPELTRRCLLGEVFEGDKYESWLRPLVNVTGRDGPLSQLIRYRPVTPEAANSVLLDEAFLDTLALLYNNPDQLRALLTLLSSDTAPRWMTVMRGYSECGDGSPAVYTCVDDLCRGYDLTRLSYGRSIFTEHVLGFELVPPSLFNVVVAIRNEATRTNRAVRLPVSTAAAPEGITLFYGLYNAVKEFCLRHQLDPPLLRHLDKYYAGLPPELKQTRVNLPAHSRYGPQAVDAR
T1 chain 3: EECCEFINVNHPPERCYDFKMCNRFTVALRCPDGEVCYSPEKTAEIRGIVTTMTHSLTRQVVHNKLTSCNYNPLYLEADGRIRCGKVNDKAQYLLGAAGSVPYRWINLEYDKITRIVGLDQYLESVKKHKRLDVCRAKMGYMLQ
T1 chain 4: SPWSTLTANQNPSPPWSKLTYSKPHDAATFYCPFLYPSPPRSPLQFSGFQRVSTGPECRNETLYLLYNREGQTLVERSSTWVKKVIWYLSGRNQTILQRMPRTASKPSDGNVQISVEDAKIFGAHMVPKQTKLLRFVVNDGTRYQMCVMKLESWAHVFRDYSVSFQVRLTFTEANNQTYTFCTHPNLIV
T1 chain 5: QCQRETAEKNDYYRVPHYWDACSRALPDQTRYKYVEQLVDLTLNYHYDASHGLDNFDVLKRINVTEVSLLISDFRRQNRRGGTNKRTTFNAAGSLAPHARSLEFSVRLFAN
Experiment: SPR

B1: MAb 9I6 (antibody, V domains shown)
VH: EVQLVQSGAEVKKPGESLKISCRESGDTFPAYWIAWVRQMPGKGLEWMGIIYPIDSETTYSPSFQGQVTISADKSINTAYLQWSSLKASDSAIYYCARGTSTGLREAFHIWGQGTMVTVSS
VL: DVVMTQSPLSLAVTLGQPAYISCRSSQSLGYSDGNTYLNWFQQRPGQSPRRLIYEVSNRDSGVPDRFSGSGSGTDFTLKISRVEAEDVGTYYCMQGTHWPPMCSFGQGTKLEIK
  koff: 0.000151 s⁻¹
